Experiment [1] deals with F_((ecto))-K394R (F_((ecto))-WT with substitution of Lys394 with Arg394) fused with the T4 fibritin trimerization domain (respiratory syncytial virus (strain of the construct not stated) | T4) (UniProt P03420). Put plainly: MST; RED-NHS-labelled F_((ecto)) protein at 50 nM pretreated with DMSO, IGF1R titrated from 30.6 pM to 2 µM, PBS, Monolith NT.115.
The target of experiment [2] is F_((ecto))-WT (1–513 aa) fused with the T4 fibritin trimerization domain (respiratory syncytial virus (strain of the construct not stated) | T4) (UniProt P03420). Described as above.

As for “extracellular domain of the human IGF1R protein (Met 1−Asn 932) (from UniProt P08069 31-932) (domain or fragment)”, the Kd in experiment [1] was determined as 12 nM; in experiment [2], 11 nM.

These data come from PMC11389407.
